According to paper PMC4535689:

How the values were obtained:
[1] = target: mouse NGL-1 extracellular fragment (LRR and Ig domains) (mouse); test: AUC
[2] = target: T1, human NGL-2 extracellular fragment (LRR and Ig domains) (human); test: AUC
T1 sequence (Q9HBW1 whole entry, looked up): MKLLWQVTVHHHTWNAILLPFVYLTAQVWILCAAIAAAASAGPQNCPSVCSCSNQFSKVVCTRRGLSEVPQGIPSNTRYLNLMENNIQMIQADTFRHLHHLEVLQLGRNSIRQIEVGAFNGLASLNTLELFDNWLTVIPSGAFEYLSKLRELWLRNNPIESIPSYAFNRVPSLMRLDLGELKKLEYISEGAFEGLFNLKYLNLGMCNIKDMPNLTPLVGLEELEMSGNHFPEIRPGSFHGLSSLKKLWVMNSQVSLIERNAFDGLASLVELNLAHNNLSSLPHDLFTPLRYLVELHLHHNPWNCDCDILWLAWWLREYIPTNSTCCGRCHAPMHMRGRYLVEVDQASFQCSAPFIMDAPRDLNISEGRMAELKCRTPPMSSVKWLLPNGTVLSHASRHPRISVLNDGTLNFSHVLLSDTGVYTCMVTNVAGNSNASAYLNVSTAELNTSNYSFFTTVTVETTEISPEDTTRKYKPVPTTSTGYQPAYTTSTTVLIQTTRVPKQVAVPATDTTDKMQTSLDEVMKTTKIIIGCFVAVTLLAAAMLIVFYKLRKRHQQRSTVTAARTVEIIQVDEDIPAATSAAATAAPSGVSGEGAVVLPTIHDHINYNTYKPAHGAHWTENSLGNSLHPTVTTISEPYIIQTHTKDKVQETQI

Q: For “mouse netrin G1 isoform G1f (LN and LE1 domains) (natural protein)”, which Kd [1] is on record?
A: The Kd was 505 nM.

Q: What about the stoichiometry N [1] of the same molecule?
A: Its stoichiometry N is 1.

Q: “mouse netrin G1 isoform G1j (LN domain only) (natural protein)” was tested. Which Kd [1] did it give?
A: Its Kd is 1490 nM.

B1: human netrin G2, full ectodomain (LN domain, LE1-3 and C'), lacking only the GPI anchor site (domain or fragment)
chain: DYDICKSWVTTDEGPTWEFYACQPKVMRLKDYVKVKVEPSGITCGDPPERFCSHENPYLCSNECDASNPDLAHPPRLMFDKEEEGLATYWQSITWSRYPSPLEANITLSWNKTVELTDDVVMTFEYGRPTVMVLEKSLDNGRTWQPYQFYAEDCMEAFGMSARRARDMSSSSAHRVLCTEEYSRWAGSKKEKHVRFEVRDRFAIFAGPDLRNMDNLYTRLESAKGLKEFFTLTDLRMRLLRPALGGTYVQRENLYKYFYAISNIEVIGRCKCNLHANLCSMREGSLQCECEHNTTGPDCGKCKKNFRTRSWRAGSYLPLPHGSPNACATAGSFGNCECYGHSNRCSYIDFLNVVTCVSCKHNTRGQHCQHCRLGYYRNGSAELDDENVCIECNCNQIGSVHDRCNETGFCECREGAAGPKCDDCLPTHYWRQGCYPNVCDDDQLLCQNGGTCLQNQRCACPRGYTGVRCEQPRCDPADDDGGLDCDR
Q: With B1 as the molecule, how does the Kd [2] read?
A: Its Kd is 264 nM.

Q: What about the stoichiometry N [2] of the same molecule?
A: The stoichiometry N was 1.

B2: human sNetrin G2 ("short" netrin G2, LN and LE1 domains only) (domain or fragment)
chain: DYDICKSWVTTDEGPTWEFYACQPKVMRLKDYVKVKVEPSGITCGDPPERFCSHENPYLCSNECDASNPDLAHPPRLMFDKEEEGLATYWQSITWSRYPSPLEANITLSWNKTVELTDDVVMTFEYGRPTVMVLEKSLDNGRTWQPYQFYAEDCMEAFGMSARRARDMSSSSAHRVLCTEEYSRWAGSKKEKHVRFEVRDRFAIFAGPDLRNMDNLYTRLESAKGLKEFFTLTDLRMRLLRPALGGTYVQRENLYKYFYAISNIEVIGRCKCNLHANLCSMREGSLQCECEHNTTGPDCGKCKKNFRTRSWRAGSYLPLPHGSPNACATAGS
modifications: N-linked glycans at Asn105 and Asn111 (seen in the crystal structure)
Q: With B2 as the molecule, how does the Kd [2] read?
A: Its Kd is 180 nM.
